In patent US20240270846A1 (published 2024):

What was measured:
[1] = target: T1, CD3 epsilon homodimer protein (UniProt P07766 23-126); test: SPR Biacore T200, CD3 epsilon homodimer immobilised on CM4, one-arm antibody as analyte, single-cycle kinetics; reference unaltered GLS3000 antibody;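 further: CD3 epsilon homodimer attached to the CM4 chip via amine coupling, measured at 25 °C with HBS-EP+ as running buffer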
T1 construct: also called CD3 (CD3 epsilon)
Procedure: An appropriate amount of CD3 epsilon homodimer protein was immobilized onto Sensor chip CM4 (GE Healthcare Japan Corp.) by the amine coupling method. Then, the antibody having an appropriate concentration was injected thereto as an analyte and allowed to interact with the CD3 epsilon homodimer protein on the sensor chip. Then, the sensor chip was regenerated by the injection of 10 mmol/L glycine-HCl (pH 1.5). The assay was conducted at 25 degrees C., and HBS-EP+(GE Healthcare Japan Corp.) was used as a running buffer. […] Each parameter was calculated using Biacore T200 Evaluation Software (GE Healthcare Japan Corp.).
Specifically, when the amount of the GLS3000-containing antibody bound was defined as X and the amount of the L chain one-amino acid altered form bound was defined as Y, a value of Z (ratio of amounts bound)=Y/X was used.

[2] = target: T2, cynomolgus monkey CD137 (cynomolgus monkey, UniProt Q07011 24-186 (human entry), limits assumed); test: SPR Biacore T200, IgG captured on protein A, antigen as analyte, 25 C;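 further: antigens flowed over a CM3 chip for 120 s association, KD derived from ka and kd, running buffer (ACES, NaCl, Tween20, pH 7.4) served as blank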
T2 construct: Soluble analyte in the Biacore assay; also called cyno CD137
T2 chain: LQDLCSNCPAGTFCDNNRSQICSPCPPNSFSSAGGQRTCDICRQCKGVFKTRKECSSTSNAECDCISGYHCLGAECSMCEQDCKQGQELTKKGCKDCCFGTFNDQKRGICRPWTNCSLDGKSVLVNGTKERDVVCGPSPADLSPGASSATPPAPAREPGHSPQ
Procedure: (§1) Sensor chip CM3 (GE Healthcare) was immobilized with an appropriate amount of sure protein A (GE Healthcare) by amine coupling. The selected antibodies were captured by the chip to allow interaction to human CD3ed, human CD137 and cyno CD137 as an antigen. The running buffer used was 20 mmol/l ACES, 150 mmol/l NaCl, 0.05% (w/v) Tween20, pH 7.4. All measurements were carried out at 25 degrees C. The antigens were diluted using the running buffer.
(§2) Diluted antigen solutions and the running buffer which is the blank were loaded at a flow rate of 30 micro L/min for 120 seconds to allow each of the antigens to interact with the antibody captured on the sensor chip. […] Next, to regenerate the sensor chip, 10 mmol/L glycine-HCl, pH 1.5 was loaded at a flow rate of 30 micro L/min for 30 seconds and 50 mmol/L NaOH was loaded at a flow rate 30 micro L/min for 30 seconds.
(§3) Kinetic parameters such as the association rate constant ka (1/Ms) and the dissociation rate constant kd (1/s) were calculated based on the sensorgrams obtained by the measurements. The dissociation constant KD(M) was calculated from these constants. Each parameter was calculated using the Biacore T200 Evaluation Software (GE Healthcare).

[3] = target: T3, human CD3ed (human, UniProt P07766 23-126; P04234 22-105, limits assumed); test: as above
T3 construct: The construct injected as 'human CD3ed' in the Biacore assay is not defined; also called human CD3 epsilon/delta heterodimer
T3 sequence (P07766 23-126 limits assumed, chain 1 of 2): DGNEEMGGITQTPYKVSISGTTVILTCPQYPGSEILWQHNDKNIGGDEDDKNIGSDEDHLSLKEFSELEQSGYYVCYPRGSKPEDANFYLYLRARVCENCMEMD
T3 sequence (P04234 22-105 limits assumed, chain 2 of 2): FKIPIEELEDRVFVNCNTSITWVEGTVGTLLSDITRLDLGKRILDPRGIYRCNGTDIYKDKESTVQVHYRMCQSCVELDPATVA
Procedure: as §1, §2, §3

T1 sequence (P07766 23-126): as the sequence (P07766 23-126 limits assumed, chain 1 of 2) above

B1: GLS3000 V94P one-amino acid altered one-arm antibody (CE115HA000-pE22Hh / Kn010G3 / GLS3000 V94P-kappa) (antibody, human IgG1, kappa, L234A L235A, N297A, name in Kabat numbering)
heavy: QVQLVESGGGVVQPGRSLRLSCAASGFTFSNAWMHWVRQAPGKGLEWVAQIKAKSNNYATYYAESVKGRFTISRDDSKNSLYLQMNSLKTEDTAVYYCRYVHYGAYYGVDAWGQGTTVTVSSASTKGPSVFPLAPSSKSTSGGTAALGCLVKDYFPEPVTVSWNSGALTSGVHTFPAVLQSSGLYSLSSVVTVPSSSLGTQTYICNVNHKPSNTKVDKKVEPKSCDKTHTCPPCPAPEAAGGPSVFLFPPKPKDTLMISRTPEVTCVVVDVSHEDPEVKFNWYVDGVEVHNAKTKPREEQYASTYRVVSVLTVLHQDWLNGKEYKCKVSNKALPAPIEKTISKAKGQPREPQVYTLPPSRCELTKNQVSLSCAVKGFYPSDIAVEWESNGQPENNYKTTPPVLDSDGSFFLVSKLTVDKSRWQQGNVFSCSVMHEALHNHYTQKSLSLSPDYKDDDDK
chain: EPKSSDKTHTCPPCPAPELLGGPSVFLFPPKPKDTLMISRTPEVTCVVVDVSHEDPEVKFNWYVDGVEVHNAKTKPREEQYNSTYRVVSVLTVLHQDWLNGKEYKCKVSNKALPAPIEKTISKAKGQPREPQVCTLPPSRDELTKNQVSLWCLVKGFYPSDIAVEWESNGQPENNYKTTPPVLDSDGSFFLYSKLTVDKSRWQQGNVFSCSVMHEALHNRYTQKSLSLSP
light: DIVMTQSPLSLPVTPGEPASISCRSSQSLVHSNRNTYLHWYQQKPGQAPRLLIYKVSNRFSGVPDRFSGSGSGTDFTLKISRVEAEDVGVYYCGQGTQPPYTFGQGTKLEIKRTVAAPSVFIFPPSDEQLKSGTASVVCLLNNFYPREAKVQWKVDNALQSGNSQESVTEQDSKDSTYSLSSTLTLSKADYEKHKVYACEVTHQGLSSPVTKSFNRGEC
notes: One-arm antibody; substitution position in Kabat numbering; also called L chain altered form, Kabat 94 V to P
- dissociation constant KD(M) ratio of L chain altered form to GLS3000 [1]: 1.1 ratio

B2: GLS3000 G89T one-amino acid altered one-arm antibody (CE115HA000-pE22Hh / Kn010G3 / GLS3000 G89T-kappa) (antibody, human IgG1, kappa, L234A L235A, N297A, name in Kabat numbering)
heavy: QVQLVESGGGVVQPGRSLRLSCAASGFTFSNAWMHWVRQAPGKGLEWVAQIKAKSNNYATYYAESVKGRFTISRDDSKNSLYLQMNSLKTEDTAVYYCRYVHYGAYYGVDAWGQGTTVTVSSASTKGPSVFPLAPSSKSTSGGTAALGCLVKDYFPEPVTVSWNSGALTSGVHTFPAVLQSSGLYSLSSVVTVPSSSLGTQTYICNVNHKPSNTKVDKKVEPKSCDKTHTCPPCPAPEAAGGPSVFLFPPKPKDTLMISRTPEVTCVVVDVSHEDPEVKFNWYVDGVEVHNAKTKPREEQYASTYRVVSVLTVLHQDWLNGKEYKCKVSNKALPAPIEKTISKAKGQPREPQVYTLPPSRCELTKNQVSLSCAVKGFYPSDIAVEWESNGQPENNYKTTPPVLDSDGSFFLVSKLTVDKSRWQQGNVFSCSVMHEALHNHYTQKSLSLSPDYKDDDDK
chain: EPKSSDKTHTCPPCPAPELLGGPSVFLFPPKPKDTLMISRTPEVTCVVVDVSHEDPEVKFNWYVDGVEVHNAKTKPREEQYNSTYRVVSVLTVLHQDWLNGKEYKCKVSNKALPAPIEKTISKAKGQPREPQVCTLPPSRDELTKNQVSLWCLVKGFYPSDIAVEWESNGQPENNYKTTPPVLDSDGSFFLYSKLTVDKSRWQQGNVFSCSVMHEALHNRYTQKSLSLSP
light: DIVMTQSPLSLPVTPGEPASISCRSSQSLVHSNRNTYLHWYQQKPGQAPRLLIYKVSNRFSGVPDRFSGSGSGTDFTLKISRVEAEDVGVYYCTQGTQVPYTFGQGTKLEIKRTVAAPSVFIFPPSDEQLKSGTASVVCLLNNFYPREAKVQWKVDNALQSGNSQESVTEQDSKDSTYSLSSTLTLSKADYEKHKVYACEVTHQGLSSPVTKSFNRGEC
notes: One-arm antibody; substitution position in Kabat numbering; also called L chain altered form, Kabat 89 G to T
- dissociation constant KD(M) ratio of L chain altered form to GLS3000 [1]: 1.1 ratio

B3: GLS3000 G89V one-amino acid altered one-arm antibody (CE115HA000-pE22Hh / Kn010G3 / GLS3000 G89V-kappa) (antibody, human IgG1, kappa, L234A L235A, N297A, name in Kabat numbering)
heavy: QVQLVESGGGVVQPGRSLRLSCAASGFTFSNAWMHWVRQAPGKGLEWVAQIKAKSNNYATYYAESVKGRFTISRDDSKNSLYLQMNSLKTEDTAVYYCRYVHYGAYYGVDAWGQGTTVTVSSASTKGPSVFPLAPSSKSTSGGTAALGCLVKDYFPEPVTVSWNSGALTSGVHTFPAVLQSSGLYSLSSVVTVPSSSLGTQTYICNVNHKPSNTKVDKKVEPKSCDKTHTCPPCPAPEAAGGPSVFLFPPKPKDTLMISRTPEVTCVVVDVSHEDPEVKFNWYVDGVEVHNAKTKPREEQYASTYRVVSVLTVLHQDWLNGKEYKCKVSNKALPAPIEKTISKAKGQPREPQVYTLPPSRCELTKNQVSLSCAVKGFYPSDIAVEWESNGQPENNYKTTPPVLDSDGSFFLVSKLTVDKSRWQQGNVFSCSVMHEALHNHYTQKSLSLSPDYKDDDDK
chain: EPKSSDKTHTCPPCPAPELLGGPSVFLFPPKPKDTLMISRTPEVTCVVVDVSHEDPEVKFNWYVDGVEVHNAKTKPREEQYNSTYRVVSVLTVLHQDWLNGKEYKCKVSNKALPAPIEKTISKAKGQPREPQVCTLPPSRDELTKNQVSLWCLVKGFYPSDIAVEWESNGQPENNYKTTPPVLDSDGSFFLYSKLTVDKSRWQQGNVFSCSVMHEALHNRYTQKSLSLSP
light: DIVMTQSPLSLPVTPGEPASISCRSSQSLVHSNRNTYLHWYQQKPGQAPRLLIYKVSNRFSGVPDRFSGSGSGTDFTLKISRVEAEDVGVYYCVQGTQVPYTFGQGTKLEIKRTVAAPSVFIFPPSDEQLKSGTASVVCLLNNFYPREAKVQWKVDNALQSGNSQESVTEQDSKDSTYSLSSTLTLSKADYEKHKVYACEVTHQGLSSPVTKSFNRGEC
notes: One-arm antibody; substitution position in Kabat numbering; also called L chain altered form, Kabat 89 G to V
- dissociation constant KD(M) ratio of L chain altered form to GLS3000 [1]: 1.4 ratio

B4: GLS3000 G89Q one-amino acid altered one-arm antibody (CE115HA000-pE22Hh / Kn010G3 / GLS3000 G89Q-kappa) (antibody, human IgG1, kappa, L234A L235A, N297A, name in Kabat numbering)
heavy: QVQLVESGGGVVQPGRSLRLSCAASGFTFSNAWMHWVRQAPGKGLEWVAQIKAKSNNYATYYAESVKGRFTISRDDSKNSLYLQMNSLKTEDTAVYYCRYVHYGAYYGVDAWGQGTTVTVSSASTKGPSVFPLAPSSKSTSGGTAALGCLVKDYFPEPVTVSWNSGALTSGVHTFPAVLQSSGLYSLSSVVTVPSSSLGTQTYICNVNHKPSNTKVDKKVEPKSCDKTHTCPPCPAPEAAGGPSVFLFPPKPKDTLMISRTPEVTCVVVDVSHEDPEVKFNWYVDGVEVHNAKTKPREEQYASTYRVVSVLTVLHQDWLNGKEYKCKVSNKALPAPIEKTISKAKGQPREPQVYTLPPSRCELTKNQVSLSCAVKGFYPSDIAVEWESNGQPENNYKTTPPVLDSDGSFFLVSKLTVDKSRWQQGNVFSCSVMHEALHNHYTQKSLSLSPDYKDDDDK
chain: EPKSSDKTHTCPPCPAPELLGGPSVFLFPPKPKDTLMISRTPEVTCVVVDVSHEDPEVKFNWYVDGVEVHNAKTKPREEQYNSTYRVVSVLTVLHQDWLNGKEYKCKVSNKALPAPIEKTISKAKGQPREPQVCTLPPSRDELTKNQVSLWCLVKGFYPSDIAVEWESNGQPENNYKTTPPVLDSDGSFFLYSKLTVDKSRWQQGNVFSCSVMHEALHNRYTQKSLSLSP
light: DIVMTQSPLSLPVTPGEPASISCRSSQSLVHSNRNTYLHWYQQKPGQAPRLLIYKVSNRFSGVPDRFSGSGSGTDFTLKISRVEAEDVGVYYCQQGTQVPYTFGQGTKLEIKRTVAAPSVFIFPPSDEQLKSGTASVVCLLNNFYPREAKVQWKVDNALQSGNSQESVTEQDSKDSTYSLSSTLTLSKADYEKHKVYACEVTHQGLSSPVTKSFNRGEC
notes: One-arm antibody; substitution position in Kabat numbering; also called L chain altered form, Kabat 89 G to Q
- dissociation constant KD(M) ratio of L chain altered form to GLS3000 [1]: 2.11 ratio

B5: GLS3000 G89P one-amino acid altered one-arm antibody (CE115HA000-pE22Hh / Kn010G3 / GLS3000 G89P-kappa) (antibody, human IgG1, kappa, L234A L235A, N297A, name in Kabat numbering)
heavy: QVQLVESGGGVVQPGRSLRLSCAASGFTFSNAWMHWVRQAPGKGLEWVAQIKAKSNNYATYYAESVKGRFTISRDDSKNSLYLQMNSLKTEDTAVYYCRYVHYGAYYGVDAWGQGTTVTVSSASTKGPSVFPLAPSSKSTSGGTAALGCLVKDYFPEPVTVSWNSGALTSGVHTFPAVLQSSGLYSLSSVVTVPSSSLGTQTYICNVNHKPSNTKVDKKVEPKSCDKTHTCPPCPAPEAAGGPSVFLFPPKPKDTLMISRTPEVTCVVVDVSHEDPEVKFNWYVDGVEVHNAKTKPREEQYASTYRVVSVLTVLHQDWLNGKEYKCKVSNKALPAPIEKTISKAKGQPREPQVYTLPPSRCELTKNQVSLSCAVKGFYPSDIAVEWESNGQPENNYKTTPPVLDSDGSFFLVSKLTVDKSRWQQGNVFSCSVMHEALHNHYTQKSLSLSPDYKDDDDK
chain: EPKSSDKTHTCPPCPAPELLGGPSVFLFPPKPKDTLMISRTPEVTCVVVDVSHEDPEVKFNWYVDGVEVHNAKTKPREEQYNSTYRVVSVLTVLHQDWLNGKEYKCKVSNKALPAPIEKTISKAKGQPREPQVCTLPPSRDELTKNQVSLWCLVKGFYPSDIAVEWESNGQPENNYKTTPPVLDSDGSFFLYSKLTVDKSRWQQGNVFSCSVMHEALHNRYTQKSLSLSP
light: DIVMTQSPLSLPVTPGEPASISCRSSQSLVHSNRNTYLHWYQQKPGQAPRLLIYKVSNRFSGVPDRFSGSGSGTDFTLKISRVEAEDVGVYYCPQGTQVPYTFGQGTKLEIKRTVAAPSVFIFPPSDEQLKSGTASVVCLLNNFYPREAKVQWKVDNALQSGNSQESVTEQDSKDSTYSLSSTLTLSKADYEKHKVYACEVTHQGLSSPVTKSFNRGEC
notes: One-arm antibody; substitution position in Kabat numbering; also called L chain altered form, Kabat 89 G to P
- dissociation constant KD(M) ratio of L chain altered form to GLS3000 [1]: 1.8 ratio

B6: dBBDu_189 / dBBDu_L116 (antibody, human IgG1, V domains shown)
VH: QVQLVESGGGLVQPGRSLRLSCAASGFTFSNAWMHWVRQAPGKGLEWIAQIKDRSNQYATYYAPSVKGRFTISRDDSKNSIYLQMNSLKTEDTAVYYCHYVHYAQASSLLPSFGVDAWGQGTTVTVSS
VL: DIVMTQSPLSLPVTPGEPASISCSSSQELVHANRQIYLHWYQQKPGQAPRLLIYKVANRFPGVPDRFSGSGSGTDFTLKISRVEAEDVGVYYCAQGTQVPFTFGQGTKLEIK
notes: Tested as IgG (human IgG1 constant region, kappa light chain); also called dBBDu189/L116
- Kd [2]: 11.1 µM
- koff [2]: 0.00823 s⁻¹
- kon [2]: 744 M⁻¹ s⁻¹
- Kd [3]: 0.209 µM
- koff [3]: 0.00434 s⁻¹
- kon [3]: 20800 M⁻¹ s⁻¹

B7: dBBDu_189 / dBBDu_L112 (antibody, human IgG1, V domains shown)
VH: QVQLVESGGGLVQPGRSLRLSCAASGFTFSNAWMHWVRQAPGKGLEWIAQIKDRSNQYATYYAPSVKGRFTISRDDSKNSIYLQMNSLKTEDTAVYYCHYVHYAQASSLLPSFGVDAWGQGTTVTVSS
VL: DIVMTQSPLSLPVTPGEPASISCTSDQELVHMNRHTYLHWYQQKPGQAPRLLIYKVYNRFPGVPDRFSGSGSGTDFTLKISRVEAEDVGVYYCAQGTSVPFTFGQGTKLEIK
notes: Tested as IgG (human IgG1 constant region, kappa light chain); also called dBBDu189/L112
- Kd [2]: 5.76 µM
- koff [2]: 0.0286 s⁻¹
- kon [2]: 4980 M⁻¹ s⁻¹
- Kd [3]: 0.331 µM
- koff [3]: 0.01 s⁻¹
- kon [3]: 30300 M⁻¹ s⁻¹
